Reference: the DeepSol protein solubility set

experiment: soluble on expression in E. coli; label from the status in PepcDB or PDB records

Sequence | soluble on expression in E. coli
STQEQTPQICVVGSGPAGFYTAQHLLKHHSRAHVDIYEKQLVPFGLVRFGVAPDHPEVKNVINTFTQTARSDRCAFYGNVEVGRDVTVQELQDAYHAVVLSYGAEDHQALDIPGEELPGVFSARAFVGWYNGLPENRELAPDLSCDTAVILGQGNVALDVARILLTPPDHLEKTDITEAALGALRQSRVKTVWIVGRRGPLQVAFTIKELREMIQLPGTRPMLDPADFLGLQDRIKEAARPRKRLMELLLRTATEKPGVEEAARRASASRAWGLRFFRSPQQVLPSPDGRRAAGIRLAVTRLEGIGEATRAVPTGDVEDLPCGLVLSSIGYKSRPIDPSVPFDPKLGVVPNMEGRVVDVPGLYCSGWVKRGPTGVITTTMTDSFLTGQILLQDLKAGHLPSGPRPGSAFIKALLDSRGVWPVSFSDWEKLDAEEVSRGQASGKPREKLLDPQEMLRLLGH | soluble
MSVTVDDKDVSLNMIRPFEILTLPIPAGVAGKSLVWRFINDYGAISQPLKKNL | not soluble
LSKLTVVETPLEVNLPAGDNRVAVRVTPVSLNAGSLKSDAGARFGGGTSGAAGSQSDKGVGLAVAFERPEEGLKADIGTTPMGFKYTTVAGGASVDRPLGNNPDLRYGLNVSRRPVTDSVTSFAGSTDERSGLSWGGVTANGGRGQLSYDDQTIGGYGYGSWHKLVGNNVKSNTRGEVGGGVYWYLRNAEDSKLTAGLSLMGMSYDNDQSYFTYGHGGYFSPQSFYAIGVPVMWAQRTERFSYQVKSSVGVQHFKQDGAEFFPDDSTLQAASAQRYTGQSKTGIGYNLSAAGEYKLDSSLFMGASLGLDNARDYRQFSGALYLRYMFEDI | not soluble
MAHHHHHHMDAAWEAHIRLDPATDAAMRSNSGSRANSGGAGTPPVTLAPPEHPFNVMSFNTASAGCSIAHCGFLRGREEDFLREVVQRLQPSSSPSAARHLLYVITSANDVYVVDVKTEVVFLHWAGGASTSGCSSSSSEASASPLGAQFIVTQAETYGALMYLTVARRSSVKTATEQAASRGCHLFSGGGGPERNVYQRCNDPAVYVLHLGCTKPLAASTTKAFIAGGGAYVIQAVSKDKPHPTSKHSRSNAASATASAGALSIRAPSVGASAATAAERIGSAGVCRRRRRWGGDPEEGAADLLRCQRTPRPQPVIDAQFVPSAAVLVPCHGAGHSSSSCKWICRNVQILLVTPTRQQLLCTAGRRRNGRREQRGPL | not soluble
MGSDKIHHHHHHMETKDLIVIGGGINGAGIAADAAGRGLSVLLLEAQDLACATSSASSKLIHGGLRYLEHYEFRLVSEALSERETLLKMAPHIIFPMRFRLPHQPHLRPAWMIRIGLFMYDNIGKRVSLPASKGLKFGADSVLKPELKQGFEYSDCWVDDARLVVLNAQEVAKRGGEVRTRTKVTRARREQGVWIVDAVDSLTGETFTWRAKGLVNATGPWVKEFFDDGLQLKSPYGIRLIKGSHIVVPRVHNQPQAYILQNKDHRIVFVIPWQDDYSIIGTTDVEYKGNPHDVKIDDNEVGYLLDVYNDHFKQQLTRDDIVWTYSGVRPLCDDESDSPQAITRDYTLSVDDDNGQAPLLSVFGGKLTTYRKLAEHALDKLHKYYPQAGKAWTKDAVLPGGDIAGTRDDYAAALRRRFNLPESLTRRYSRTYGSNSELILANVKGLSDLGEDFGHDLYEAELRYLVEKEWAVTLDDVIWRRTKLGMRFDDAQKQRISDWLVSYRQQQMAKAG | not soluble
MSVDTKIIGSFLQLTNYFAENYPAPCDLISSLTDLWFKQGGMIARMMSCDIQEFKSSDVFYEVLYRKIRVGNSLLADTLDPKMAAEGNLFEICKFYSLYLEHLRKDQSELLTIVLERLASQSDFNSTVILDMFTFFDKLYSEGNVGDWWDFLLGSEDASMVFKTPKKTNRPSNAFSTPTATAKRLPMYGSSTCRSPIAEVVDSPTMKYMRSDRELKTAKKKLVDMEHMVDELESENRNLTEKGRELKLIIDSLKSDVTNKRDTAKSSQQREQELSNILEEKEKESAQLLQQLEESRAALRDEQRHLEHQEAENGKIVEQLKTVSELNEKLTMQVKDLQDASENELASFRQKEKELIDELRMATNENVDLEELLKGVTNGKAGLQFENNCLVGKLEELSFVSDRNKQDADNARAQLEEEREKHRLATEKLHQENIDYMKTSDSRIEMILEESKTRKMMDESTIERLRLDLDNEKSYKKNLEDLLNDLNQRALNSEMANHLQKEGIQSVETYLQMAKKRIEHLELELSATNATIEFQSQQLDRAGNMLITEQEIRNQTSVQYKERTSALENQLSQKDAEIENLKRDLQQLVTKHESELKEQHEQLNVHHQSQQKLHSEAEKLRREHEALGKKNCFLGERCKIFVKDSRSGVMKRSTSSDSLAEFLSKGNDNETLEEMMRLIAQTPRKSVAFSFDLDEDETLKGTPIGFRTNLNETRESIASDEFFDRFPSTFPTRAAPRESVVSIGEPKNQFSPLGTSKDRVKTLTSRNEKVKPHLKSSYATEMGNVTSPSADEENVRKGKSKSIFAKLKGPRRDSFFFGKKKQAE | not soluble
MGSDKIHHHHHHMQQLTKPKKIAIIGAGFRGITAAKIFQDAGIEFVILDKNDATGGVWRTFANQSSYVQIPEPEYRFDMDYPNGLPSEFTPRDEILAHAERFINVHGIGKHIIFKSEVFSIEDISDSKYRVYYKHDNANKSLEVDGIYYAGGRLHKRRTVHFPGEKNFQGLIRYGISDDMPISEYRGKKVAIIGCGAFAMENARTALLNGATHVTIIAKTINIVLPRMVMFWLNSMRLAPVAPLLKMSWKMYDWAGTNFMKENLDGFSINQRTVPIISDFIFLAHKVGKAEFKKDSIDFIDSNSVVTSDGTKIEADIILKCVGFEGQMDVFKQVYPPFEAVNWIWVNKKTNFVLDQDPEFGMTTKATKLMTSGSTLLLTKIAARVFAMSLINPSKFEQIIPVLPTSQNAGYNISYHMGSLSKLLVANKDIKKFILRTSAKKSKSMIEKGGNGKYLEFCKREWKQQCEALGVEEVEYPFVFPWWILLWENWQQLVNRFFLAAFPEQNIVRDIQPEDVEWSFISAES | not soluble
GPGSMSAVASDDSAGHVVDPVQHTHRYVQEHRLNELFGHLLQLVLYHRPDDPRAFLAEEVRKIREEKVSLSLFTERDLETMFEMIDATAQRWITVAQLRNTCRNLATASSAGNVSTGGGDLTAEQEAAIAGAGDAAGRVTMDKFKEVLSSLLLTKNKWS | soluble
MGSDKIHHHHHHMPPAKTQEFDPSRIKEPNSPSVITKAATLMDVLRTEGPTNSARLAEVLGEPISSVYRMLHTLTAIGWVEQDGKRGSYRVGLAMLTLAELQLRHMDLRKIAALTMRKIHALTGETTFLCVRHGIRAVCIERVDGDRVNSRVLQLGTSLPLHVGAAPRALLAFEGRRAWETYATNLGFEGHNWSKGPSRGELFQHLDEDRDKGFCLVDNEITPGIAAVGAPIYNHRGEVVASLSMSGLRDGILSDTTDYSAVELILQGSAEISQALGATIEHNGGNQKLPQVTPLSIVV | not soluble
KASEEGIGGRKTCEYYPCHFEGQNCTFCFCPFYPCENEKTGGKWIQSSRGGRVWSCVDCHLVHKKEIAQKILDCLMHEGDTDELVKVAWKEVMEPIL | not soluble
NEKETISYIINTSKNIVIFALSPDKTKASYRVAEFLQRKNYKIFPIYPKEEFILNEKVYRNLDQIEEKIDTLILFRKGEVALEILPKLVEKNIKNLWLQLDISNETAKEECKKLDINFIQNRCIMLEYPHFK | not soluble
MALNNVSLSSGDQRSRVAYRSSHGDLRPRASALAMVSGDGFLVSRPEAIHLGPRQAVRPSVRAESRRVDGGGRSPREPDGRGRSRQARFSPYPIPAVEPDLLRSVLQQRLIALGGVIAARISV | soluble
MGHHHHHHSHMKMEHQNKRSPLHAAAEAGHVDICHMLVQAGANIDTCSEDQRTPLMEAAENNHLEAVKYLIKAGALVDPKDAEGSTCLHLAAKKGHYEVVQYLLSNGQMDVNCQDDGGWTPMIWATEYKHVDLVKLLLSKGSDINIRDNEENICLHWAAFSGCVDIAEILLAAKCDLHAVNIHGDSPLHIAARENRYDCVVLFLSRDSDVTLKNKEGETPLQCASLNSQV | not soluble
MMPNVAPNSYYLNIPNANSTSTTTSSIFSDLNKEYESKIKEIEEYYIKTLLNENTDNDDSSSSEGHNINETDILSEYSPRPSPWLPSKPNCYHPLGDFKDLIISDSRPTNTLPINNPFAGNNNISTLATTEKKRKKRSLEVRVNPTYTTSAFSLPLTAENLQKLSQVDSQSTGLPYTLPIQKTTKLEPCRRAPLQLPQLVNKTLYKTELCESFTIKGYCKYGNKCQFAHGLNELKFKKKSNNYRTKPCINWSKLGYCPYGKRCCFKHGDDKDVEIYQNANDGRSKDTALTPLPTSLAPSNNDNITNLSKPRNLHTSVKALQRMTW | not soluble
MAAVVALSLRRRLPATTLGGACLQASRGAQTAAATAPRIKKFAIYRWDPDKAGDKPHMQTYKVDLNKCGPMVLDALIKIKNEVDSTLTFRRSCREGICGSCAMNINGGNTLACTRRIDTNLNKVSKIYPLPHMYVIKDLVPDLSNFYAQYKSIEPYLKKKDESQEGKQQYLQSIEEREKLDGLYECILCACCSTSCPSYWWNGDKYLGPAVLMQAYRWMIDSRDDFTEERLAKLQDPFSLYRCHTIMNCTRTCPKGLNPGKAIAEIKKMMATYKEKKASV | not soluble
MSFVQPGLAQEKERMWRTLTVSGRGVESIPTTLSEVSLGVEIQGKTAQEVQHEAARRSSAVVALLKSRNVEKLQTTGIRLNPVYSYNNNVQRITGYAASNTVNFRIATEKAGTLLDEAVKAGATQINGISFVATDEAIASARQQALKEATQDAQQQASAVFSSLGFQAKEVVSIQVGGATAPPPPILYRAEAAKLSSADASTPVIGGEQQVEASVTLQISYLEHHHHHH | soluble
SLWQPQTGDIIFQISRSSQSKAIQLATHSDYSHTGMLVMRNKKPYVFEAVGPVKYTPLKQWIAHGEKGKYVVRRVEGGLSVEQQQKLAQTAKRYLGKPYDFSFSWSDDRQYCSEVVWKVYQNALGMRVGEQQKLKEFDLSNPLVQAKLKERYGKNIPLEETVVSPQAVFDAPQLTTVAKEWPLFSW | soluble
SRFTISAAKPEDCKDIERMIMELAVYENMPDQVKISHKELERDGFGPNPFYHCLVAEVPEEHKSKDGNTTVGYVIFFYTYSTWKGRTVYMEDLYVMPEFRGNGIGKALLGAVAKEAKDQLCSRLQFSVLDWNKPSLDFYMAKGAEDLTAKEGWHFLRFHGMALDNLAQEAP | soluble
MGRKKGLPEFEESAPDGFDPENPYKDPVAMVEMREHIVREKWIQIEKAKILREKVKWCYRVEGVNHYQKCRHLVQQYLDSTRGVGWGKDHRPISLHGPKPEAVEAE | not soluble
MGHHHHHHSHMNIFIMRHGEAEVMANSDKARHLTVYGSKQAFLQGQWLKQHLSTLVINSLDRILVSPYVRAQETFHQVNQAFDLELENKFEIWEGITPYGHAHSVIDYLEVLKDEGVKSVLIVSHLPLVGEIVAELYGKRNPISFYPATIAQLLWDGNKSEILMHQASPVIYLK | not soluble
